These results are taken from PMC10786891, “Massively parallel profiling of RNA-targeting CRISPR-Cas13d”.

Broadly, the Kd is the free concentration of one partner at which half of the binding sites on the other are occupied at equilibrium, for simple one-to-one binding. A high value points to lower affinity.

T1: EsCas13d, nuclease-dead (Eubacterium siraeum, UniProt B0MS50, R295A;H300A;R849A;H854A)
T1 sequence: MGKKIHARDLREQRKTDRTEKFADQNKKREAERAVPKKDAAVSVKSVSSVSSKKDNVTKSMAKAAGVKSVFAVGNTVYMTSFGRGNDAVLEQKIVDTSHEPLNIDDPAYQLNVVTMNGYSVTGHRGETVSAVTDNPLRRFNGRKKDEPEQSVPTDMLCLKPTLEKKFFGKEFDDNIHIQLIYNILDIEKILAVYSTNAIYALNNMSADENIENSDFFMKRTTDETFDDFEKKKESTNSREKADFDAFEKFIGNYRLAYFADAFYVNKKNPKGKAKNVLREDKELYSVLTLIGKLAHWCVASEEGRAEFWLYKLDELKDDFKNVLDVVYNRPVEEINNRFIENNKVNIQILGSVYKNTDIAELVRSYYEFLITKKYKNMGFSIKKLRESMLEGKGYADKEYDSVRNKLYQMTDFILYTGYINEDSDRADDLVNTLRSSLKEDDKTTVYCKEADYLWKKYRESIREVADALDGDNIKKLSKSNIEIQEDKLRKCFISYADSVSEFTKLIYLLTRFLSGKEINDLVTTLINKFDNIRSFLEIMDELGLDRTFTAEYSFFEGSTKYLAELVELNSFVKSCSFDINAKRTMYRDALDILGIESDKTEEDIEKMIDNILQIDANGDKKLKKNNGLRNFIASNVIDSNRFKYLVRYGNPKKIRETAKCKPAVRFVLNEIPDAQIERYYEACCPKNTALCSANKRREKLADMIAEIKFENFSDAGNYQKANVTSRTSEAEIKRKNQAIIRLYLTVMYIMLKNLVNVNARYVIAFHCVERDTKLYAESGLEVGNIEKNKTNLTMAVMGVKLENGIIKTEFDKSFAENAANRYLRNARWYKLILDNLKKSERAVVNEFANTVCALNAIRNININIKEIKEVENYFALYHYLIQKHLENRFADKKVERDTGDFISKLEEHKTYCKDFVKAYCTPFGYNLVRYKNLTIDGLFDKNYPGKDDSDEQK

B1: target 1 C2U,G5A (mixed)
RNA 1: CACCCGUGCAAAAAUGCAGGGGUCUAAAACUGAGCGGAUAACCUCUCUAUGG
RNA 2: GGGAAUGGAUCCACAUCUACGAAUUCGUACCAUAGAGAGGUUAUCCACUUACCGAGAUCGGAAGAGCACACGU
B2: target 1 insA 3' of 13,insG 3' of 2 (mixed)
RNA 1: CACCCGUGCAAAAAUGCAGGGGUCUAAAACUGAGCGGAUAACCUCUCUAUGG
RNA 2: GGGAAUGGAUCCACAUCUACGAAUUCGUACCAUAGAGAGAGUUAUCCGCUCGACCGAGAUCGGAAGAGCACACGU
B3: target 1 insG 3' of 3,insC 3' of 1 (mixed)
RNA 1: CACCCGUGCAAAAAUGCAGGGGUCUAAAACUGAGCGGAUAACCUCUCUAUGG
RNA 2: GGGAAUGGAUCCACAUCUACGAAUUCGUACCAUAGAGAGGUUAUCCGCUGCACCCGAGAUCGGAAGAGCACACGU
B4: target 3 A5U,C6A (mixed)
RNA 1: CACCCGUGCAAAAUUGCAGGGGUCUAAAACGACCUGAAUAUUUCAGAUCAAA
RNA 2: GGGAAUGGAUCCACAUCUACGAAUUCGUUUUUGAUCUGAAAUAUUAUGGUCUGCAGAUCGGAAGAGCACACGU
B5: target 3 del5,del22 (mixed)
RNA 1: CACCCGUGCAAAAUUGCAGGGGUCUAAAACGACCUGAAUAUUUCAGAUCAAA
RNA 2: GGGAAUGGAUCCACAUCUACGAAUUCGUUUUGAUCUGAAAUAUUCGGUCUGCAGAUCGGAAGAGCACACGU
B6: target 3 del4,del8 (mixed)
RNA 1: CACCCGUGCAAAAUUGCAGGGGUCUAAAACGACCUGAAUAUUUCAGAUCAAA
RNA 2: GGGAAUGGAUCCACAUCUACGAAUUCGUUUUUGAUCUGAAAUAUCAGUCUGCAGAUCGGAAGAGCACACGU
B7: target 3 U2A,A12U (mixed)
RNA 1: CACCCGUGCAAAAUUGCAGGGGUCUAAAACGACCUGAAUAUUUCAGAUCAAA
RNA 2: GGGAAUGGAUCCACAUCUACGAAUUCGUUUUUGAUCUGAUAUAUUCAGGACUGCAGAUCGGAAGAGCACACGU
B8: target 3 G4C,U8A (mixed)
RNA 1: CACCCGUGCAAAAUUGCAGGGGUCUAAAACGACCUGAAUAUUUCAGAUCAAA
RNA 2: GGGAAUGGAUCCACAUCUACGAAUUCGUUUUUGAUCUGAAAUAAUCACGUCUGCAGAUCGGAAGAGCACACGU
B9: target 3 insG 3' of 6,insA 3' of 3 (mixed)
RNA 1: CACCCGUGCAAAAUUGCAGGGGUCUAAAACGACCUGAAUAUUUCAGAUCAAA
RNA 2: GGGAAUGGAUCCACAUCUACGAAUUCGUUUUUGAUCUGAAAUAUUCGAGGAUCUGCAGAUCGGAAGAGCACACGU
B10: target 3 C1U,A5G (mixed)
RNA 1: CACCCGUGCAAAAUUGCAGGGGUCUAAAACGACCUGAAUAUUUCAGAUCAAA
RNA 2: GGGAAUGGAUCCACAUCUACGAAUUCGUUUUUGAUCUGAAAUAUUCGGGUUUGCAGAUCGGAAGAGCACACGU
B11: target 3 A9G,U22C (mixed)
RNA 1: CACCCGUGCAAAAUUGCAGGGGUCUAAAACGACCUGAAUAUUUCAGAUCAAA
RNA 2: GGGAAUGGAUCCACAUCUACGAAUUCGUUCUUGAUCUGAAAUGUUCAGGUCUGCAGAUCGGAAGAGCACACGU
B12: target 3 A13G,U22G (mixed)
RNA 1: CACCCGUGCAAAAUUGCAGGGGUCUAAAACGACCUGAAUAUUUCAGAUCAAA
RNA 2: GGGAAUGGAUCCACAUCUACGAAUUCGUUGUUGAUCUGGAAUAUUCAGGUCUGCAGAUCGGAAGAGCACACGU
B13: target 3 C1G,U8A (mixed)
RNA 1: CACCCGUGCAAAAUUGCAGGGGUCUAAAACGACCUGAAUAUUUCAGAUCAAA
RNA 2: GGGAAUGGAUCCACAUCUACGAAUUCGUUUUUGAUCUGAAAUAAUCAGGUGUGCAGAUCGGAAGAGCACACGU
B14: target 3 C6A,A9G (mixed)
RNA 1: CACCCGUGCAAAAUUGCAGGGGUCUAAAACGACCUGAAUAUUUCAGAUCAAA
RNA 2: GGGAAUGGAUCCACAUCUACGAAUUCGUUUUUGAUCUGAAAUGUUAAGGUCUGCAGAUCGGAAGAGCACACGU
B15: target 3 U2A,U22C (mixed)
RNA 1: CACCCGUGCAAAAUUGCAGGGGUCUAAAACGACCUGAAUAUUUCAGAUCAAA
RNA 2: GGGAAUGGAUCCACAUCUACGAAUUCGUUCUUGAUCUGAAAUAUUCAGGACUGCAGAUCGGAAGAGCACACGU
B16: target 3 U21A,U22A (mixed)
RNA 1: CACCCGUGCAAAAUUGCAGGGGUCUAAAACGACCUGAAUAUUUCAGAUCAAA
RNA 2: GGGAAUGGAUCCACAUCUACGAAUUCGUUAAUGAUCUGAAAUAUUCAGGUCUGCAGAUCGGAAGAGCACACGU
B17: target 3 insC 3' of 13,insU 3' of 4 (mixed)
RNA 1: CACCCGUGCAAAAUUGCAGGGGUCUAAAACGACCUGAAUAUUUCAGAUCAAA
RNA 2: GGGAAUGGAUCCACAUCUACGAAUUCGUUUUUGAUCUGACAAUAUUCAGUGUCUGCAGAUCGGAAGAGCACACGU
B18: target 3 insA 3' of 6,insC 3' of 5 (mixed)
RNA 1: CACCCGUGCAAAAUUGCAGGGGUCUAAAACGACCUGAAUAUUUCAGAUCAAA
RNA 2: GGGAAUGGAUCCACAUCUACGAAUUCGUUUUUGAUCUGAAAUAUUCAACGGUCUGCAGAUCGGAAGAGCACACGU
B19: target 3 insC 3' of 11,insA 3' of 7 (mixed)
RNA 1: CACCCGUGCAAAAUUGCAGGGGUCUAAAACGACCUGAAUAUUUCAGAUCAAA
RNA 2: GGGAAUGGAUCCACAUCUACGAAUUCGUUUUUGAUCUGAAACUAUUACAGGUCUGCAGAUCGGAAGAGCACACGU
B20: target 3 G4U,A5U (mixed)
RNA 1: CACCCGUGCAAAAUUGCAGGGGUCUAAAACGACCUGAAUAUUUCAGAUCAAA
RNA 2: GGGAAUGGAUCCACAUCUACGAAUUCGUUUUUGAUCUGAAAUAUUCUUGUCUGCAGAUCGGAAGAGCACACGU
B21: target 3 complement block 18-20 (mixed)
RNA 1: CACCCGUGCAAAAUUGCAGGGGUCUAAAACGACCUGAAUAUUUCAGAUCAAA
RNA 2: GGGAAUGGAUCCACAUCUACGAAUUCGUUUUACUUCUGAAAUAUUCAGGUCUGCAGAUCGGAAGAGCACACGU
B22: target 3 C1A,U8A (mixed)
RNA 1: CACCCGUGCAAAAUUGCAGGGGUCUAAAACGACCUGAAUAUUUCAGAUCAAA
RNA 2: GGGAAUGGAUCCACAUCUACGAAUUCGUUUUUGAUCUGAAAUAAUCAGGUAUGCAGAUCGGAAGAGCACACGU
B23: target 3 insU 3' of 22,insU 3' of 13 (mixed)
RNA 1: CACCCGUGCAAAAUUGCAGGGGUCUAAAACGACCUGAAUAUUUCAGAUCAAA
RNA 2: GGGAAUGGAUCCACAUCUACGAAUUCGUUUUUUGAUCUGAUAAUAUUCAGGUCUGCAGAUCGGAAGAGCACACGU
B24: target 3 insC 3' of 22,insA 3' of 22 (mixed)
RNA 1: CACCCGUGCAAAAUUGCAGGGGUCUAAAACGACCUGAAUAUUUCAGAUCAAA
RNA 2: GGGAAUGGAUCCACAUCUACGAAUUCGUUUCAUUGAUCUGAAAUAUUCAGGUCUGCAGAUCGGAAGAGCACACGU
B25: target 3 A5U,U8G (mixed)
RNA 1: CACCCGUGCAAAAUUGCAGGGGUCUAAAACGACCUGAAUAUUUCAGAUCAAA
RNA 2: GGGAAUGGAUCCACAUCUACGAAUUCGUUUUUGAUCUGAAAUAGUCUGGUCUGCAGAUCGGAAGAGCACACGU
B26: target 3 U8A (mixed)
RNA 1: CACCCGUGCAAAAUUGCAGGGGUCUAAAACGACCUGAAUAUUUCAGAUCAAA
RNA 2: GGGAAUGGAUCCACAUCUACGAAUUCGUUUUUGAUCUGAAAUAAUCAGGUCUGCAGAUCGGAAGAGCACACGU
B27: target 3 insC 3' of 11,insG 3' of 2 (mixed)
RNA 1: CACCCGUGCAAAAUUGCAGGGGUCUAAAACGACCUGAAUAUUUCAGAUCAAA
RNA 2: GGGAAUGGAUCCACAUCUACGAAUUCGUUUUUGAUCUGAAACUAUUCAGGUGCUGCAGAUCGGAAGAGCACACGU

In the series the target is T1, EsCas13d, nuclease-dead. Nature of the series: crRNA (strand 1, pre-loaded); Mg2+; 40 mM Tris-HCl pH 7.5, 150 mM NaCl, 6 mM MgCl2, 1 mM DTT, 0.1% Tween-20, 0.2 mg/ml BSA; 25 C; 10 min per concentration, then washed. Conditions: tags: His6-TwinStrep-SUMO cleaved; N-terminal SNAP kept (SNAP-Surface 488); label: 3' end held by stalled T7 RNA polymerase.
With B1, the affinity, expressed as Kd, was 49 ± 9 nM.
Molecule B2 displayed a dissociation constant (Kd) of 3.54 ± 0.28 nM.
Then B3, with 11.5 ± 0.9 nM; and B4, with 29.9 ± 2.7 nM.
Then B5, with 29.3 ± 2.3 nM.
For the molecule B6, the affinity, expressed as Kd, was 97 ± 29 nM.
As for B7, the Kd is 79 ± 17 nM.
B8 displayed a Kd of 71.5 ± 10 nM.
B9 had a dissociation constant Kd of 10.4 ± 1.15 nM.
Regarding B10, the Kd came to 20.6 ± 3.3 nM.
For the molecule B11, the Kd was determined as 25.9 ± 4 nM.
On to B12, for which the Kd came to 67 ± 26 nM.
B13 returned a Kd of 45.5 ± 15.5 nM.
Consider B14, for which the affinity, expressed as Kd, was 59.5 ± 13 nM.
Then B15, with 23.1 ± 3.7 nM; and B16, with 26.6 ± 3 nM.
The molecule B17 yielded a Kd of 59.5 ± 17.5 nM.
Next, B18: 7.3 ± 0.55 nM; B19: 65 ± 19 nM; B20: 25.2 ± 3.6 nM.
Consider B21, for which the Kd turned out to be 26.1 ± 5.05 nM.
Molecule B22 had a dissociation constant (Kd) of 68 ± 17.5 nM.
As for B23, binding was put at a Kd of 71 ± 33 nM.
Then B24, with 20.2 ± 2.4 nM.
B25 had a Kd of 92.5 ± 16.5 nM. Against the preceding molecule, the Kd is about 4.6-fold higher.
For B26, binding was characterised by a dissociation constant (Kd) of 58.5 ± 7.5 nM.
In turn, B27 displayed a Kd of 54 ± 14 nM.
